According to the supplement of paper PMC9170038:

What was measured:
MS2 coat protein [1] = experiment: apparent KD of MS2 coat protein; higher = weaker reporter binding; details: Eterna round: R101
Method: (§1)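 RNA-MaP: designed FMN/MS2 RNA switches (84 nt design region) are transcribed on-chip within common flanks and titrated with SNAP-549-labelled MS2 coat protein (about 1-3000 nM) in 100 mM Tris pH 7.5, 80 mM KCl, 4 mM MgCl2, without or with 200 uM FMN. Median apparent KD per design; activation ratio = KD,OFF / KD,ON.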

MS2 coat protein [2] = experiment: apparent KD of MS2 coat protein; designed switch direction (-1 OFF switch, 1 ON switch): 1; higher = weaker reporter binding; details: Eterna round: R98
Method: as §1

MS2 coat protein [3] = experiment: apparent KD of MS2 coat protein; designed switch direction (-1 OFF switch, 1 ON switch): -1; higher = weaker reporter binding; details: Eterna round: R98
Method: as §1

Row | Sequence | apparent KD of MS2 coat protein (MS2 coat protein [1]; input ligand: FMN 200 uM) [nM] | apparent KD of MS2 coat protein (MS2 coat protein [1]; input ligand: none) [nM] | apparent KD of MS2 coat protein (MS2 coat protein [2]; input ligand: FMN 200 uM) [nM] | apparent KD of MS2 coat protein (MS2 coat protein [2]; input ligand: none) [nM] | other results
1 | GUGAGGCAUCUACACGCUCGGGCCGAGGAUAUACAUGAGGAUCACCCAUGUAACAGUGCGGUCAUGUAGAAGGCGGCUAAAUUA [Rianrare] (puzzle (switch architecture): Small Loop Exclusion NG 3) | 42.3 | 11.1 |  |  | 
2 | GCUCUCACUUGAGGAUAUCGAGUGGAAUACACUCGAGAAGGCAGGAAAACCUGAGGAUCACCCAGGUAACUGGAAAGAGAGCAA [Same State NG1 - A3C, U17G Submission 5G-G46A] |  |  | 20.3 | 16.1 | 
3 | UAUAUAAUUAAGAGCUGGAAAAUCACAUGAGGAUCACCCAUGUAGGAUAUCAGCACGAUAAGUGCUGAGAAGGACUACCAGCUC [Denovo 79] |  |  |  |  | apparent KD of MS2 coat protein (MS2 coat protein [3]; input ligand: FMN 200 uM): 15.8 nM; apparent KD of MS2 coat protein (MS2 coat protein [3]; input ligand: none): 20 nM
4 | GGAGAUACAUGAGGAUCACCCAUGUAGGAUAUCGGGCCCAUAUACGGCGAAAGCCGUAUAUGGGCCGAGAAGGGCGUACACACC [#LOL-7] (puzzle (switch architecture): Small Loop Exclusion NG 3) | 7.96 | 8.78 |  |  | 
5 | GGAGAUACAUGAGGAUCACCCAUGUAGGAUAUAUAGUAUAUAUAUAUCGAAAGAUAUAUAUAUAUAUAGAAGGGCGUGCACACC [#LOL-16] (puzzle (switch architecture): Small Loop Exclusion NG 3) | 6.74 | 8.34 |  |  | 
6 | GACGAAAUCUUAGGAUAUCGAGUGGAAUACACUCGAGAAGGAAGAUAUACCUGAGGAUCACCCAGGUAAAACUGGACGUCAAUA [Same State NG1 - A3C, U17G Submission 8H U68A, U7A] |  |  | 26.6 | 29.8 | 
7 | GUGCACAUUCGAGGAUAUCGGAGAGGAGUCCUUCGAGAAGGCGAUUCAUGCUGUGUUAUUCUGGACAUGAGGAUCACCCAUGUG [LRO019_SS NG 1 mod JR_SSNG1_Sub034] |  |  | 107 | 149 | 
8 | CCGAUGCAAAUAAAACAUGAGGAUCACCCAUGUGAGUCUCAUGAGGAUAUGCAGGUCUUUGACUUGCAGAAGGCAUGGCGUCGG [Mat - Same State NG 3 - JL Mod - D70] |  |  | 138 | 1050 | 
9 | AGGUAUACUUAGAAGGCGUGGACGAAACGUCCACGAGGAUAUGAGGAUCACCCAUAUCAGGUCAGCCUGCAAAGCAGGCUGACC [#SharedSequence - IExNG1: 8-2] (puzzle (switch architecture): Inverted Exclusion NG 1) | 43.9 | 12.2 |  |  | 
10 | CCAUAAAAGAUCCAAAAUUACAACAUGAGGAUCACCCAUGUGCAGGAUAUCGUGAAAGUAAAGUACGAGAAGGGCAGACACUGC [salish99_ExNG3_r2_008] |  |  |  |  | apparent KD of MS2 coat protein (MS2 coat protein [3]; input ligand: FMN 200 uM): 139 nM; apparent KD of MS2 coat protein (MS2 coat protein [3]; input ligand: none): 154 nM
11 | GCUGUCGCAUGAGGAUAUGGUCACGUUUCGUGACCAGAAGGCAUGUCAAUAGACAUGAGGAUCACCCAUGUAGUAAAGACAGCA [Mat - Same State NG 1 - JL Mod - D40] |  |  | 35.1 | 386 | 
12 | CAACUGGCACAGAAGGGUGACAUGAGGAUCACCCAUGUAGCGUGGCACUCAGGAGGAGCCACGCCACAGGAUAUGUGCCGACAC [Beisreriar] (puzzle (switch architecture): Inverted Same State NG 2) | 45.7 | 29.9 |  |  | 
13 | AAAUUUAACGAAGGAUAUGCUGACAUGAGGAUCACCCAUGUGUGCCUUGUGUUGCUGCCUCGGGAGCAGAAGGUCGUAUACAUA [Ex NG2 #11] |  |  |  |  | apparent KD of MS2 coat protein (MS2 coat protein [3]; input ligand: FMN 200 uM): 613 nM; apparent KD of MS2 coat protein (MS2 coat protein [3]; input ligand: none): 454 nM
14 | GUAGCUAUCGGAGGAUAUUCAUAGCCGAGAGGCACAUGAGGAUCACCCAUGUGCGGAAACGCUUGGGAGAAGGCCGAUAGCUAC [Mat - Same State NG 2 - JL Mod - D77] |  |  | 14.3 | 21.5 | 
15 | AAAUAACUUGAAGGAUAUCAGGGUGCACCUCAGUAAAACUGAGGUGCACCCUGAGAAGGUCGAGGAUCACCCGAUCUAAAUAAA [#SharedSequence SLExNG1: 3-2] (puzzle (switch architecture): Small Loop Exclusion NG 1) | 13.5 | 9.19 |  |  | 
16 | GCAGAAGGUGCGGAGGAUCACCCUGUAAGGAUAUGCAUUAGCAAGGAUAUACAGAGGAUCACCCUGUAGAAGGUGCACUUCUAA [pwkr2 ssNG3 DX.7] |  |  | 1290 | 1170 | 

Row | Sequence | apparent KD of MS2 coat protein (MS2 coat protein [1]; input ligand: FMN 200 uM) [nM] | apparent KD of MS2 coat protein (MS2 coat protein [1]; input ligand: none) [nM] | apparent KD of MS2 coat protein (MS2 coat protein [2]; input ligand: FMN 200 uM) [nM] | apparent KD of MS2 coat protein (MS2 coat protein [2]; input ligand: none) [nM] | other results
17 | GCACUGGAUGUAGGAUAUCAGGACGAUAAGUCCUGAGAAGGACAUGAGGAUCACCCAUGUGAUAAUACCAGUGCAAAUAAUAUA [Denovo Exng1 26] |  |  |  |  | apparent KD of MS2 coat protein (MS2 coat protein [3]; input ligand: FMN 200 uM): 119 nM; apparent KD of MS2 coat protein (MS2 coat protein [3]; input ligand: none): 19.5 nM
18 | AAAACAUGAGGAUCACCCAUGUAAAGAUCGGUUAUUAAAAGUGAGGAUAUACAAAAUUUUAUAUAGUAGAAGGCACUGGGUACA [JR_SSNG3_Sub001] |  |  | 28.9 | 27.8 | 
19 | UAACUAAUAUACACAUGAGGAUCACCCAUGUCCACCCGUGGACAGGAUAUCUGGCCGCGCCGGCUGGAGAAGGGUCCGUAUUGU [Arianesge] |  |  | 172 | 56.2 | 
20 | UCAUACAUGACAUGACAUGACAUGAGGAUCACCCAUGUUUACAAGGAUAUGUUGAUGAAACAUCAACAGAAGGUGUAAUGGACU [xclu_NG3_cac7] |  |  |  |  | apparent KD of MS2 coat protein (MS2 coat protein [3]; input ligand: FMN 200 uM): 232 nM; apparent KD of MS2 coat protein (MS2 coat protein [3]; input ligand: none): 136 nM
21 | CCACAACAUUGAGGAUAUGCACAGGAUCACCGUGUAGAAGGCAUCAGGGAGAAGGUGCAGAGGAUCACCCUGUAAGGAUAUCUA [pwkr2 ssNG1 DX.8] |  |  | 133 | 340 | 
22 | GUCAGCUCGUGAGGAUAUACAUCACUGCUUCGGCAGUGUAUUAAGAUCACAUGAGGAUCACCCAUGUAGAAGGCACGAGCUGAU [#SameSwitchNG2InvertedNG3 NG2 A1] (puzzle (switch architecture): Exclusion NG 2) | 201 | 14.6 |  |  | 
23 | UUUGGGAGCACAGGAUAUGGCACCUCGACCGUGCCAGAAGGGUGAUUCUGUUGGUGGCCACAUGAGGAUCACCCAUGUGCCUCC [Araterin] |  |  | 21.5 | 275 | 
24 | GCACUCAAGUUAGGAUAUGGAUCGGAAAACGAUCCAGAAGGAACAUGAAAACAUGAGCAUCAGCCAUGUUCCAGAAACGAGUGC [SameSame 13 - Jieux - Same State NG 1] |  |  | 22.8 | 69.9 | 
25 | ACAUGGAAUCGAGGAUAUGACGCGGAAACGAAGUCAGAAGGCGAAAAUUUAACUCGAUAAUACAUGAGGAUCACCCAUGUAAUU [AK-NGROCr2-ExNG1-3] |  |  |  |  | apparent KD of MS2 coat protein (MS2 coat protein [3]; input ligand: FMN 200 uM): 24.6 nM; apparent KD of MS2 coat protein (MS2 coat protein [3]; input ligand: none): 19.7 nM
26 | CCGACGCCUCAGAAGGCACUCGCAUAAUGCGAGUGAGGAUAUGAGGAUCACCCAUAUCAACGUCGGAGUCACCGAAACGGUGAC [#SharedSequence - IEx NG 1-2] (puzzle (switch architecture): Inverted Exclusion NG 1) | 78.1 |  |  |  | 
27 | GGACAUCCCACAGGAUAUGCUGGACUUUGUCCAGCAGAAGGGUGAAACAUGAGGAUCACCCAUGUAAGGAUGUCCAUAUUUAAU [Denovo 40] |  |  | 217 | 2190 | 
28 | UGCUAACUGUAGAAGGGUGACAUGAGGAUCACCCAUGUGCACGCGCGAUUUACGGCGCGCGUGCCACAGGAUAUACAGUUUAGU [Atquar] (puzzle (switch architecture): Inverted Same State NG 2) | 34.3 | 32.7 |  |  | 
29 | GUAGCAUACUGAGGAUAUUCAUAUAAUAAAUAAACAUGAGGAUCACCCAUGUGGCGAAAGCCUUGGGAGAAGGCAGAAUGCUAC [Xeonanis 55 7] |  |  | 38.3 | 511 | 
30 | GGCAGCCUUCAGAAGGGAGUGCGAUAAUCGCACUCAGGAUAUGAGGAUCACCCAUAUCAAGCUGCCACUGAGGCAAAGCCUCAG [#SharedSequence - IEx NG 2-1] (puzzle (switch architecture): Inverted Exclusion NG 1) | 12.1 | 10.8 |  |  | 
31 | AAAUAACUUGAAGGAUAUGACCCUCGAGGUGACUAAAAGUCACCUCGAGGGUCAGAAGGUCGAGGAUCACCCGAUCUAAAUAAA [#SharedSequence SLExNG1: 3-1] (puzzle (switch architecture): Small Loop Exclusion NG 1) | 24.6 | 10.2 |  |  | 
32 | UUGGACGUCGUAGGAUAUGUAGGAUAUUCCUACAUGAGGAUCACCCAUGUUUACAUGGAAGAAGGACAGAAGGACGAUGUCCAU (puzzle (switch architecture): Same State NG 2) | 5.73 | 572 |  |  | 
